Positions count from the first letter of the chain named. Blank lines part the entries; values can stand above or below the binder they belong to.
How the values were obtained:
hPD-L1(ECD)-His = hPD-L1(ECD)-His (human, UniProt Q9NZQ7); test: SPR supernatant
human Trop-2 (His) = molecular target: T1, human Trop-2 (His) (human, UniProt P09758); test: SPR
T1 chain: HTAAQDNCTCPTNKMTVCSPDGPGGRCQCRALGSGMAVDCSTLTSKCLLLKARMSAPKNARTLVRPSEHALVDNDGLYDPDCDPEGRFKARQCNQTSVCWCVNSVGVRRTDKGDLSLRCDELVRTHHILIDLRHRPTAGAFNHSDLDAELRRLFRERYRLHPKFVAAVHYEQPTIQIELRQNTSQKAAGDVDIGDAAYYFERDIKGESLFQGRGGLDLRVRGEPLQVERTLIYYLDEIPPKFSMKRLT

Sequence of hPD-L1(ECD)-His (Q9NZQ7 19-238): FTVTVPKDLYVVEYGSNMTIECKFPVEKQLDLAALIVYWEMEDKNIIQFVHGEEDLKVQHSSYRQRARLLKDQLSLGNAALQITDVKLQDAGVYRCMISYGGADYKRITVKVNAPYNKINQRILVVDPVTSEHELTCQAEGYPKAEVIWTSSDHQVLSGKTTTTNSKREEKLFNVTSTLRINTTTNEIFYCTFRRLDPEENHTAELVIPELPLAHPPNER

Kd (hPD-L1(ECD)-His): 1.07 nM
B1: PD-L1-1.168.15-z14-uIgG1K (antibody)
chain 1: not shown
chain 2: DIQMTQSPSFLSASVGDRVTITCKASQNVHTSLAWYQQKPGKSPKALIYLASNRHTGVPSRFSGSGSGTEFTLTISSLQPEDFATYFCLQHWNYPLTFGQGTKLEIKRTVAAPSVFIFPPSDEQLKSGTASVVCLLNNFYPREAKVQWKVDNALQSGNSQESVTEQDSKDSTYSLSSTLTLSKADYEKHKVYACEVTHQGLSSPVTKSFNRGEC

Kd (hPD-L1(ECD)-His): 1.19 nM
B2: PD-L1-1.168.15-z15-uIgG1K (antibody)
chain 1: not shown
chain 2: B1 chain 2

Kd (hPD-L1(ECD)-His): 1.04 nM
B3: PD-L1-1.168.15-z13-uIgG1K (antibody)
chain 1: not shown
chain 2: B1 chain 2 with M4L

Kd (hPD-L1(ECD)-His): 1.13 nM
B4: PD-L1-1.168.15-z8-uIgG1K (antibody)
chain 1: not shown
chain 2: B1 chain 2 with M4L, F87Y

Kd (hPD-L1(ECD)-His): 0.915 nM
B5: PD-L1-1.168.15-z9-uIgG1K (antibody)
chain 1: not shown
chain 2: B1 chain 2 with M4L

Kd (hPD-L1(ECD)-His): 0.995 nM
B6: PD-L1-1.168.15-z10-uIgG1K (antibody)
chain 1: not shown
chain 2: B1 chain 2 with F87Y

Kd (hPD-L1(ECD)-His): 1.13 nM
B7: PD-L1-1.168.15-z12-uIgG1K (antibody)
chain 1: not shown
chain 2: B1 chain 2 with F87Y

Kd (hPD-L1(ECD)-His): 1.01 nM
B8: PD-L1-1.168.15-z7-uIgG1K (antibody)
chain 1: not shown
chain 2: B1 chain 2 with M4L, F87Y

Kd (human Trop-2 (His)): 75.1 nM
B9: Trop-2-YC-82hz-4 (antibody, V domains shown)
VH: EVQVVESGGGLVQPGGSLRLSCAASGYIFSNSGMGWYRQAPGQGLELVAAISSGGTTHYADSVKGRFTISRDNSKNTLYLQMNSLRAEDTAVYYCNGDRYYSGTDVFGSWGQGTLVTVSS

Kd (human Trop-2 (His)): 23.8 nM
B10: Trop-2-YC-82hz-2 (antibody, V domains shown)
VH: B9 VH with A24T, Q43K, G44Q, L45R, L78V

Kd (human Trop-2 (His)): 38.1 nM
B11: Trop-2-YC-82hz-1 (antibody, V domains shown)
VH: B9 VH with A24T, Q43K, L78V

Kd (human Trop-2 (His)): 76.5 nM
B12: Trop-2-YC-82hz-5 (antibody, V domains shown)
VH: B9 VH with D61Q

Kd (human Trop-2 (His)): 48.2 nM
B13: Trop-2-YC-82hz-3 (antibody, V domains shown)
VH: B9 VH with Q43K, D61Q, L78V, A87P

Kd (hPD-L1(ECD)-His): 1.09 nM
B14: PD-L1-1.168.15-z1-uIgG1K (antibody, V domains shown)
VH: EVQLVQSGAEVKKPGATVKISCKVSGFNIEDTYIYWVQQAPGKGLEWMGWIDPANYNTKYDPRFQDRVTITADTSTDTAYMELSSLRSEDTAVYYCARGLRLLMDYWGQGTTVTVSS
VL: DIQLTQSPSFLSASVGDRVTITCKASQNVHTSLAWYQQKPGKSPKLLIYLASNRHTGVPSRFSGSGSGTEFTLTISSLQPEDFATYYCLQHWNYPLTFGQGTKLEIKR

Kd (hPD-L1(ECD)-His): 1.24 nM
B15: PD-L1-1.168.15-z5-uIgG1K (antibody, V domains shown)
VH: B14 VH
VL: B14 VL with L46A

Kd (hPD-L1(ECD)-His): 1.86 nM
B16: PD-L1-1.168.15-z18-uIgG1K (antibody, V domains shown)
VH: B14 VH with I20L, M48I, I70V, A72V, D77N
VL: B14 VL with L4M, L46A, Y87F

Kd (hPD-L1(ECD)-His): 1 nM
B17: PD-L1-1.168.15-z16-uIgG1K (antibody, V domains shown)
VH: B14 VH with M48I, A72V, D77N
VL: B14 VL with L4M, L46A, Y87F

Kd (hPD-L1(ECD)-His): 1.67 nM
B18: PD-L1-1.168.15-z17-uIgG1K (antibody, V domains shown)
VH: B14 VH with I70V, A72V, D77N
VL: B14 VL with L4M, L46A, Y87F

Kd (hPD-L1(ECD)-His): 0.501 nM
B19: PD-L1-1.168.15-z202-uIgG1K (antibody, V domains shown)
VH: EVQLQQSGAELVKPGASVKLSCTVSGFNIEDTYIYWVKQRPEQGLEWIGWIDPANYNTKYDPRFQDKATVTVDTSSNTAYMHLSSLTSEDTAVYYCARGLRLLMDYWGQGTSVTVSS
VL: B14 VL with L4M, L46A, Y87F

Kd (hPD-L1(ECD)-His): 1.29 nM
B20: PD-L1-1.168.15-z0-uIgG1K (antibody, V domains shown)
VH: B14 VH
VL: B14 VL with S43A

Kd (hPD-L1(ECD)-His): 1.4 nM
B21: PD-L1-1.168.15-z2-uIgG1K (antibody, V domains shown)
VH: B14 VH
VL: B14 VL with S43A, L46A

Kd (hPD-L1(ECD)-His): 0.998 nM
B22: PD-L1-1.168.15-z6-uIgG1K (antibody, V domains shown)
VH: B14 VH with A72V
VL: B14 VL with S43A, L46A

Kd (hPD-L1(ECD)-His): 0.844 nM
B23: PD-L1-1.168.15-z201-uIgG1K (antibody, V domains shown)
VH: B14 VH with I20L, M48I, I70V, A72V, D77N
VL: DIVMTQSQKFMSSSVGDRVSITCKASQNVHTSLAWYQQRPGQSPKALIYLASNRHTGVPDRFTGSGSGTDFTLTISNVQSEDLADYFCLQHWNYPLTFGAGTKLELRR

Source: patent US20260373285 (published 2026)
